Our source for the binding efficiency values is patent US20050196844A1.

This assay addresses taxol stabilized microtubules prepared from phosphocellulose purified tubulin. Description: co-sedimentation with taxol stabilized microtubules through a sucrose cushion, Western blot of pellet and supernatant.

In the case of “E. coli synthesized tau (352 residue isoform), non-phosphorylated (from UniProt P10636 2-758)”, the binding efficiency stood at 50%.

As to “E. coli synthesized tau (352 residue isoform) phosphorylated in vitro by fyn (from UniProt P10636 2-758)”, the binding efficiency was found to be 50%.
